Measured values published in the supplement of paper PMC10567573.

B1: TRIM63 (parent)
chain: FRCPTCRHEVIMDRHGVYGLQRNL

Variants of: B1
Experiment: protein stability index of a GFP-peptide fusion (GPS, HEK-293T) (PSI 1-6); higher = more stable
Details: c terminus: a fixed tail appended
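Also: lentivirally expressed fusions sorted by FACS into six bins by GFP to DsRed ratio, PSI derived from sequencing read proportions per bin multiplied by bin number.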

Variant | protein stability index
C3T | 1.52
C3I | 2.6
C3K | 1.74
C3Y | 3.25
C3N | 3.22
C3S | 2.41
C3Q | 1.78
C3P | 1.94
C3R | 1.54
C3V | 2.12
C3L | 2.9
C3W | 2.18
C3M | 4.35
Q21H | 1.86
Q21C | 2.63
Q21L | 3.19
Q21G | 2.42
Q21N | 2.87
Q21I | 1.74
Q21E | 2.73
Q21D | 2.1
Q21F | 1.27
Q21R | 1.98
Q21A | 1.66

Variant | protein stability index
Q21P | 1.96
Q21K | 2.02
Q21M | 1.63
R14M | 1.91
R14S | 3.39
R14W | 1.72
R14Q | 2.52
R14D | 2.5
R14L | 2.05
R14A | 1.99
R14N | 2.16
R14Y | 1.95
R14I | 1.96
R14H | 1.71
R14V | 1.54
R14P | 2.05
R14E | 3.1
R14K | 2.07
R14C | 1.63
R14F | 1.7
R14T | 2.29
R14G | 2.01
V10R | 2.41
V10G | 2.58

Variant | protein stability index
V10E | 1.91
V10S | 3.91
V10T | 2.62
V10C | 2.18
V10Q | 1.8
V10P | 1.76
V10Y | 2.05
V10M | 1.74
V10H | 1.59
V10I | 2.51
V10L | 2.73
V10K | 3.42
V10D | 2.9
V10N | 3.46
V10F | 2.25
V10W | 2.16
V10A | 2.65
R7F | 2.42
R7S | 2.24
R7G | 3.57
R7V | 2.93
R7E | 2.09
R7L | 2.13
R7A | 2.63

Variant | protein stability index
R7H | 2.46
R7C | 2.24
R7W | 2.12
R7Q | 2.48
R7Y | 1.94
R7N | 3
R7K | 3.15
R7D | 3.28
R7T | 2.35
R7P | 2.36
R7M | 2.42
H15Q | 3.54
H15N | 2.13
H15R | 1.48
H15F | 1.67
H15S | 2.44
H15L | 2.17
H15A | 1.67
H15E | 2.43
H15M | 2.71
H15C | 2.32
H15K | 2.16
H15T | 2.46
H15V | 3.01

Variant | protein stability index
H15I | 2.19
H15G | 2.12
H15D | 2.08
H15P | 2.66
H15Y | 2.49
H15W | 2.11
G16K | 2.39
G16F | 2.65
G16A | 2.15
G16H | 2.34
G16W | 2.31
G16M | 2.15
G16L | 2.21
G16I | 2.15
G16T | 1.65
G16C | 2.42
G16D | 2.47
G16R | 1.83
G16P | 2.25
G16E | 1.87
G16N | 2.2
G16S | 1.97
G16Q | 2.33
G16V | 1.69

Variant | protein stability index
G16Y | 2.49
Y18D | 1.73
Y18P | 2.23
Y18T | 2.69
Y18G | 2.31
Y18M | 3.62
Y18V | 1.67
Y18Q | 3.53
Y18I | 1.86
Y18R | 2.08
Y18H | 1.87
Y18F | 2.13
Y18W | 1.94
Y18C | 2.06
Y18A | 1.98
Y18S | 2.62
Y18K | 1.98
Y18L | 2.54
Y18E | 3.06
L20R | 1.08
L20F | 2.02
L20K | 1.51
L20E | 2.27
L20C | 2.39

Variant | protein stability index
L20S | 2.11
L20T | 2.81
L20Q | 2.07
L20V | 2.71
L20D | 2.42
L20Y | 1.99
L20G | 1.66
L20H | 2.75
L20W | 2.25
L20M | 1.81
L20P | 1.77
L20A | 1.77
L20N | 2.05
L20I | 1.6
I11R | 3.19
I11E | 1.85
I11Y | 1.74
I11C | 2.02
I11P | 2.05
I11Q | 1.61
I11A | 1.69
I11T | 2.48
I11D | 1.08
I11G | 3.3

Variant | protein stability index
I11F | 2.23
I11N | 2.82
I11S | 2.52
I11L | 2.18
I11W | 1.69
I11K | 1.77
I11V | 1.88
I11H | 2.54
G19H | 2.51
G19A | 2.7
G19M | 1.98
G19T | 2.8
G19S | 2.21
G19L | 1.47
G19Q | 2.46
G19F | 2.28
G19R | 2.31
G19C | 2.57
G19V | 2.14
G19W | 3.11
G19E | 1.86
G19I | 1.92
G19D | 1.67
G19K | 2.07

Variant | protein stability index
G19Y | 2.92
G19P | 2.25
G19N | 2.21
H8Y | 2.34
H8I | 2.11
H8Q | 1.91
H8L | 2.39
H8F | 2.64
H8S | 1.96
H8E | 1.81
H8N | 2.24
H8W | 1.72
H8R | 1.89
H8P | 3.14
H8T | 2.31
H8D | 1.77
H8K | 2.02
H8A | 2.6
H8C | 2.52
H8M | 3.58
M12F | 2.18
M12Q | 2.29
M12V | 2.98
M12C | 2.02

Variant | protein stability index
M12G | 2.8
M12H | 2.06
M12S | 3.59
M12A | 2.35
M12P | 1.62
M12Y | 1.73
M12D | 1.99
M12W | 2.17
M12I | 3.22
M12R | 2.11
M12T | 2.59
M12E | 2.19
M12L | 2.66
T5C | 2.14
T5D | 3.7
T5Q | 1.64
T5R | 1.77
T5N | 3.43
T5V | 3.27
T5Y | 2.65
T5I | 2.53
T5M | 2.28
T5H | 3.16
T5A | 2.39

Variant | protein stability index
T5W | 2.17
T5F | 2.32
T5L | 1.72
T5G | 1.33
T5S | 1.82
T5K | 2.38
E9H | 2.63
E9N | 2.69
E9F | 2.14
E9V | 3.23
E9M | 2.06
E9C | 2.56
E9A | 2.48
E9L | 2.99
E9P | 1.94
E9T | 2.34
E9W | 2.12
E9Q | 2.63
E9R | 1.47
E9K | 1.01
E9D | 1.79
E9I | 1.43
E9Y | 1.86
V17I | 2.41

Variant | protein stability index
V17W | 1.8
V17S | 2.77
V17A | 2.98
V17M | 1.69
V17C | 2.47
V17L | 2.08
V17T | 2.66
V17D | 1.58
V17H | 2.23
V17P | 2.26
V17Q | 3
V17F | 2.75
V17G | 3.09
V17N | 2.28
V17E | 1.43
V17K | 2.19
V17R | 1.53
V17Y | 2.19
C6P | 2.89
C6H | 1.91
C6D | 2.62
C6Q | 2.73
C6K | 2.15
C6L | 2.16

Variant | protein stability index
C6S | 2.09
C6F | 1.63
C6R | 2.27
C6A | 2.57
C6M | 2.06
C6G | 2.31
C6W | 1.77
C6Y | 2.37
C6E | 2.61
C6N | 2.38
C6V | 2.51
C6I | 1.89
C6T | 2.97
D13E | 2.44
D13I | 2.07
D13N | 1.04
D13V | 1.32
D13Q | 3.89
D13S | 2.13
D13T | 1.9
D13W | 2.09
D13H | 1.83
D13Y | 1.69
D13A | 2.42

Variant | protein stability index
D13G | 3.87
D13C | 2.18
D13M | 2.79
D13F | 1.71
D13K | 1.76
D13R | 3
D13P | 2.15
P4Y | 2.74
P4A | 2.38
P4S | 2.93
P4T | 3.2
P4I | 3.9
P4V | 2.99
P4E | 2.16
P4G | 1.38
P4K | 2.67
P4H | 3.24
P4F | 3.47
P4D | 2.24
P4R | 2.18
P4N | 3.06
P4Q | 3.65
